Experimental data: patent publication US20220064303A1 (GIGAGEN, published 2022)

B1: Ipilimumab (antibody, V domains shown)
VH: QVQLVESGGGVVQPGRSLRLSCAASGFTFSSYTMHWVRQAPGKGLEWVTFISYDGNNKYYADSVKGRFTISRDNSKNTLYLQMNSLRAEDTAIYYCARTGWLGPFDYWGQGTLVTVSS
VL: not shown
B2: A28 (antibody, V domains shown)
VH: QVQLVESGGGVVQPGRSLGLSCAASGFTFSTYGMHWVRQAPGKGLEWVAVTLYDGSNKYYADSVKGRFTISRDNSKNTLYLQMNSLRAEDTAVYYCARASLTGSFDYWGQGTLVTVSS
VL: not shown
B3: A23 (antibody, V domains shown)
VH: QVQLVQSGAEVKKPGASVKVSCKASGYTFTSYGISWVRQAPGQGLEWMGWISAYNGNTYYAQKFQGRVTMTTDTSTSTAYVELRSLRSDDTAVYYCARVTGRDAFDIWGQGTMVTVSS
VL: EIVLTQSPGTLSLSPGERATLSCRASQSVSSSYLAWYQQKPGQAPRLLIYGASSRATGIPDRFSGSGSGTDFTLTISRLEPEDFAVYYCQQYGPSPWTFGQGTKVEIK

How the values were obtained:
[1] = target: T1, Cyno CTLA4 (cyno, UniProt G7PL88 36-161); experiment: BLI (Octet Red96), mAb on AHC biosensor, antigen as analyte
T1 construct: Soluble antigen used as analyte in BLI
Experimental: The binding specificity and affinity of each full-length antibody towards CTLA-4 were determined using biolayer interferometry (BLI) and/or surface plasmon resonance (SPR). Anti-cyno CTLA-4 and anti-mouse CTLA-4 affinities were tested using ForteBio (BLI). Anti-human CTLA-4 affinities were measured using Carterra (SPR).
For BLI, antibodies were loaded onto an Anti-Human IgG Fc (AHC) biosensor using the Octet Red96 system (ForteBio). Loaded biosensors were dipped into antigen dilutions beginning at 300 nM, with 6 serial dilutions at 1:3. Kinetic analysis was performed using a 1:1 binding model and global fitting.

[2] = target: CTLA-4 on CTLA-4 effector cells (CTLA-4 Blockade Bioassay, Promega) (UniProt P16410 36-223, limits assumed); experiment: cell-based or functional assay
CTLA-4 on CTLA-4 effector cells (CTLA-4 Blockade Bioassay, Promega), sequence (P16410 36-223 limits assumed): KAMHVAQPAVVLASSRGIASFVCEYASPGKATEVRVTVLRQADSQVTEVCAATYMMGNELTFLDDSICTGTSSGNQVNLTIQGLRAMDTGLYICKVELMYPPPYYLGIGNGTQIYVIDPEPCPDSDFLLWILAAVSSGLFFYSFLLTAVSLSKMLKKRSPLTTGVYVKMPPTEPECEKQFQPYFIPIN

T1 sequence (G7PL88 entry or part of it): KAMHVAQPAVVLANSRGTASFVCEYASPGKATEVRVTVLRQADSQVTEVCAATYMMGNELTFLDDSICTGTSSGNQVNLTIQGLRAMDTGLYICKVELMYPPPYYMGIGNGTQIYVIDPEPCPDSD

Binder | Kd [1] | Promega assay % inhibition [2]
B1 | 1.3 nM | –
B2 | – | 0%
B3 | – | 0%
